Test results as given in ChEMBL document CHEMBL1137310, “Stereoselective chemoenzymatic synthesis of the four stereoisomers of l-2-(2-carboxycyclobutyl)glycine and pharmacological characterization at human excitatory amino acid transporter subtypes 1, 2, and 3” (J Med Chem, 2006).

B1: Excitatory amino acid transporter 1 (Homo sapiens), P43003 (protein)
chain: MTKSNGEEPKMGGRMERFQQGVRKRTLLAKKKVQNITKEDVKSYLFRNAFVLLTVTAVIVGTILGFTLRPYRMSYREVKYFSFPGELLMRMLQMLVLPLIISSLVTGMAALDSKASGKMGMRAVVYYMTTTIIAVVIGIIIVIIIHPGKGTKENMHREGKIVRVTAADAFLDLIRNMFPPNLVEACFKQFKTNYEKRSFKVPIQANETLVGAVINNVSEAMETLTRITEELVPVPGSVNGVNALGLVVFSMCFGFVIGNMKEQGQALREFFDSLNEAIMRLVAVIMWYAPVGILFLIAGKIVEMEDMGVIGGQLAMYTVTVIVGLLIHAVIVLPLLYFLVTRKNPWVFIGGLLQALITALGTSSSSATLPITFKCLEENNGVDKRVTRFVLPVGATINMDGTALYEALAAIFIAQVNNFELNFGQIITISITATAASIGAAGIPQAGLVTMVIVLTSVGLPTDDITLIIAVDWFLDRLRTTTNVLGDSLGAGIVEHLSRHELKNRDVEMGNSVIEENEMKKPYQLIAQDNETEKPIDSETKM
B2: Excitatory amino acid transporter 3 (Homo sapiens), P43005 (protein)
chain: MGKPARKGCEWKRFLKNNWVLLSTVAAVVLGITTGVLVREHSNLSTLEKFYFAFPGEILMRMLKLIILPLIISSMITGVAALDSNVSGKIGLRAVVYYFCTTLIAVILGIVLVVSIKPGVTQKVGEIARTGSTPEVSTVDAMLDLIRNMFPENLVQACFQQYKTKREEVKPPSDPEMNMTEESFTAVMTTAISKNKTKEYKIVGMYSDGINVLGLIVFCLVFGLVIGKMGEKGQILVDFFNALSDATMKIVQIIMCYMPLGILFLIAGKIIEVEDWEIFRKLGLYMATVLTGLAIHSIVILPLIYFIVVRKNPFRFAMGMAQALLTALMISSSSATLPVTFRCAEENNQVDKRITRFVLPVGATINMDGTALYEAVAAVFIAQLNDLDLGIGQIITISITATSASIGAAGVPQAGLVTMVIVLSAVGLPAEDVTLIIAVDWLLDRFRTMVNVLGDAFGTGIVEKLSKKELEQMDVSSEVNIVNPFALESTILDNEDSDTKKSYVNGGFAVDKSDTISFTQTSQF

Experiments:
Type in all cases: functional, cell-based
[1] = substrate: N[C@H](C(=O)O)[C@@H]1CC[C@H]1C(=O)O; assay: (§1) Substrate activity at human EAAT1 expressed in HEK293 cells by FLIPR membrane potential assay
[2] = substrate: N[C@@H](CCC(=O)O)C(=O)O; assay: as §1
[3] = substrate: N[C@H](C(=O)O)[C@H]1CC[C@@H]1C(=O)O; assay: as §1
[4] = substrate: N[C@@H](CCC(=O)O)C(=O)O; assay: (§2) Substrate activity at human EAAT3 expressed in HEK293 cells by FLIPR membrane potential assay
[5] = substrate: N[C@H](C(=O)O)[C@H]1CC[C@@H]1C(=O)O; assay: as §2

Protein | Km [1] [µM] | Km [2] [µM] | Km [3] [µM] | Km [4] [µM] | Km [5] [µM]
B1 | 96 | 7.9 | 300 |  | 
B2 |  |  |  | 9.9 | 300
